Experimental findings from patent publication US20260062456A1 are described below.

Experiment [1] has as its target TIGIT/CD112R/PD1 (Jurkat/PD-1/TIGIT cells carrying PD-1, TIGIT and endogenous CD112R). Put plainly: flow cytometry, Jurkat/PD-1/TIGIT cells.
Experiment [2] has as its target human PD-1 and human TIGIT both stably expressed on Jurkat cells (Jurkat/PD-1/TIGIT cells). In words: flow cytometry, Jurkat/PD-1/TIGIT cells, 20 nM. Background: Flow cytometry measures light scatter and fluorescence of single cells or particles in a stream.
In experiment [3] the target is PD-1 (human) (UniProt Q15116). In words: cell-based or functional assay.
Chain of PD-1 (human) (Q15116 25-288): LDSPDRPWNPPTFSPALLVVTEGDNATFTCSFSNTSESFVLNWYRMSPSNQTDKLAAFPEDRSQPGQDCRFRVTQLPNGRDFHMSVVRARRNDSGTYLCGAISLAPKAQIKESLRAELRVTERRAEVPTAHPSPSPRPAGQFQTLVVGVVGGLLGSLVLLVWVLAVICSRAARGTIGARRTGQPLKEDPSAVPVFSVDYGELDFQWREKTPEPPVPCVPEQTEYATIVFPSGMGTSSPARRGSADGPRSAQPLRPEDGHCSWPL
In experiment [4] the target is human PD-1 stably expressed on Jurkat/IL-2 reporter cells (Jurkat/PD-1 cells) (human) (UniProt Q15116). In words: flow cytometry, Jurkat/PD-1 cells.
Chain of human PD-1 stably expressed on Jurkat/IL-2 reporter cells (Jurkat/PD-1 cells) (human) (Q15116 25-288 limits assumed): as the sequence (Q15116 25-288) above
Experiment [5] shares this target. Put plainly: flow cytometry, Jurkat/PD-1 cells, MFI vs wildtype PD-L1 IgV-Fc.

B1: non-stack variant CD155 IgV-Fc control (P18S/S65W/S67A/L104Q/G111R) (Fc fusion)
chain: WPPPGTGDVVVQAPTQVSGFLGDSVTLPCYLQVPNMEVTHVSQLTWARHGESGSMAVFHQTQGPWYAESKRLEFVAARLGAELRNASLRMFGLRVEDEGNYTCQFVTFPQRSRSVDIWLRVLAAAEPKSSDKTHTCPPCPAPELLGGPSVFLFPPKPKDTLMISRTPEVTCVVVDVSHEDPEVKFNWYVDGVEVHNAKTKPCEEQYGSTYRCVSVLTVLHQDWLNGKEYKCKVSNKALPAPIEKTISKAKGQPREPQVYTLPPSREEMTKNQVSLTCLVKGFYPSDIAVEWESNGQPENNYKTTPPVLDSDGSFFLYSKLTVDKSRWQQGNVFSCSVMHEALHNHYTQKSLSLSPGK
B1 gave an MFI at 33.3nM in experiment [1] of 961 MFI. This molecule also displayed an MFI at 20 nM in experiment [2] of 7910 MFI.

B2: variant PD-L1 IgV-Fc P6S, N45T, N78I, I83T (Fc fusion)
chain: FTVTVSKDLYVVEYGSNMTIECKFPVEKQLDLAALIVYWEMEDKTIIQFVHGEEDLKVQHSSYRQRARLLKDQLSLGIAALQTTDVKLQDAGVYRCMISYGGADYKRITVKVNAAAAEPKSSDKTHTCPPCPAPELLGGPSVFLFPPKPKDTLMISRTPEVTCVVVDVSHEDPEVKFNWYVDGVEVHNAKTKPCEEQYGSTYRCVSVLTVLHQDWLNGKEYKCKVSNKALPAPIEKTISKAKGQPREPQVYTLPPSREEMTKNQVSLTCLVKGFYPSDIAVEWESNGQPENNYKTTPPVLDSDGSFFLYSKLTVDKSRWQQGNVFSCSVMHEALHNHYTQKSLSLSPGK
In experiment [3], B2 registered an Average Relative Luminescence Units of 2250 RLU and a Fold increase in IL2 reporter signal of 1.01 fold.

B3: variant PD-L1 IgV-Fc A33D, S75P (SEQ ID NO 285) (Fc fusion)
chain: FTVTVPKDLYVVEYGSNMTIECKFPVEKQLDLDALIVYWEMEDKNIIQFVHGEEDLKVQHSSYRQRARLLKDQLPLGNAALQITDVKLQDAGVYRCVISYGGADYKRITVKVNAAAAEPKSSDKTHTCPPCPAPELLGGPSVFLFPPKPKDTLMISRTPEVTCVVVDVSHEDPEVKFNWYVDGVEVHNAKTKPCEEQYGSTYRCVSVLTVLHQDWLNGKEYKCKVSNKALPAPIEKTISKAKGQPREPQVYTLPPSREEMTKNQVSLTCLVKGFYPSDIAVEWESNGQPENNYKTTPPVLDSDGSFFLYSKLTVDKSRWQQGNVFSCSVMHEALHNHYTQKSLSLSPGK
In experiment [3], B3 returned an Average Relative Luminescence Units of 2170 RLU and a Fold increase in IL2 reporter signal of 0.97 fold.

B4: variant PD-L1 IgV-Fc A33D, V50A (Fc fusion)
chain: FTVTVPKDLYVVEYGSNMTIECKFPVEKQLDLDALIVYWEMEDKNIIQFAHGEEDLKVQHSSYRQRARLLKDQLSLGNAALQITDVKLQDAGVYRCMISYGGADYKRITVKVNAAAAEPKSSDKTHTCPPCPAPELLGGPSVFLFPPKPKDTLMISRTPEVTCVVVDVSHEDPEVKFNWYVDGVEVHNAKTKPCEEQYGSTYRCVSVLTVLHQDWLNGKEYKCKVSNKALPAPIEKTISKAKGQPREPQVYTLPPSREEMTKNQVSLTCLVKGFYPSDIAVEWESNGQPENNYKTTPPVLDSDGSFFLYSKLTVDKSRWQQGNVFSCSVMHEALHNHYTQKSLSLSPGK
In experiment [3], B4 showed an Average Relative Luminescence Units of 2250 RLU and a Fold increase in IL2 reporter signal of 1.01 fold.

B5: variant PD-L1 IgV-Fc S75P, K106R (Fc fusion)
chain: FTVTVPKDLYVVEYGSNMTIECKFPVEKQLDLAALIVYWEMEDKNIIQFVHGEEDLKVQHSSYRQRARLLKDQLPLGNAALQITDVKLQDAGVYRCMISYGGADYRRITVKVNAAAAEPKSSDKTHTCPPCPAPELLGGPSVFLFPPKPKDTLMISRTPEVTCVVVDVSHEDPEVKFNWYVDGVEVHNAKTKPCEEQYGSTYRCVSVLTVLHQDWLNGKEYKCKVSNKALPAPIEKTISKAKGQPREPQVYTLPPSREEMTKNQVSLTCLVKGFYPSDIAVEWESNGQPENNYKTTPPVLDSDGSFFLYSKLTVDKSRWQQGNVFSCSVMHEALHNHYTQKSLSLSPGK
With B5, in experiment [3], the Average Relative Luminescence Units is 2130 RLU and the Fold increase in IL2 reporter signal worked out at 0.95 fold.

B6: variant PD-L1 IgV-Fc A33D, N45T, N78I (Fc fusion)
chain: FTVTVPKDLYVVEYGSNMTIECKFPVEKQLDLDALIVYWEMEDKTIIQFVHGEEDLKVQHSSYRQRARLLKDQLSLGIAALQITDVKLQDAGVYRCMISYGGADYKRITVKVNAAAAEPKSSDKTHTCPPCPAPELLGGPSVFLFPPKPKDTLMISRTPEVTCVVVDVSHEDPEVKFNWYVDGVEVHNAKTKPCEEQYGSTYRCVSVLTVLHQDWLNGKEYKCKVSNKALPAPIEKTISKAKGQPREPQVYTLPPSREEMTKNQVSLTCLVKGFYPSDIAVEWESNGQPENNYKTTPPVLDSDGSFFLYSKLTVDKSRWQQGNVFSCSVMHEALHNHYTQKSLSLSPGK
With B6, in experiment [3], the Average Relative Luminescence Units was 1970 RLU and the Fold increase in IL2 reporter signal was determined as 0.89 fold.

B7: variant PD-L1 IgV-Fc I20L, N45T, V110M (Fc fusion)
chain: FTVTVPKDLYVVEYGSNMTLECKFPVEKQLDLAALIVYWEMEDKTIIQFVHGEEDLKVQHSSYRQRARLLKDQLSLGNAALQITDVKLQDAGVYRCMISYGGADYKRITMKVNAAAAEPKSSDKTHTCPPCPAPELLGGPSVFLFPPKPKDTLMISRTPEVTCVVVDVSHEDPEVKFNWYVDGVEVHNAKTKPCEEQYGSTYRCVSVLTVLHQDWLNGKEYKCKVSNKALPAPIEKTISKAKGQPREPQVYTLPPSREEMTKNQVSLTCLVKGFYPSDIAVEWESNGQPENNYKTTPPVLDSDGSFFLYSKLTVDKSRWQQGNVFSCSVMHEALHNHYTQKSLSLSPGK
For the molecule B7, in experiment [3], the Average Relative Luminescence Units is 2210 RLU and the Fold increase in IL2 reporter signal was found to be 0.99 fold.

B8: variant PD-L1 IgV-Fc A33D, S75P, D104G (Fc fusion)
chain: FTVTVPKDLYVVEYGSNMTIECKFPVEKQLDLDALIVYWEMEDKNIIQFVHGEEDLKVQHSSYRQRARLLKDQLPLGNAALQITDVKLQDAGVYRCMISYGGAGYKRITVKVNAAAAEPKSSDKTHTCPPCPAPELLGGPSVFLFPPKPKDTLMISRTPEVTCVVVDVSHEDPEVKFNWYVDGVEVHNAKTKPCEEQYGSTYRCVSVLTVLHQDWLNGKEYKCKVSNKALPAPIEKTISKAKGQPREPQVYTLPPSREEMTKNQVSLTCLVKGFYPSDIAVEWESNGQPENNYKTTPPVLDSDGSFFLYSKLTVDKSRWQQGNVFSCSVMHEALHNHYTQKSLSLSPGK
In experiment [3], B8 displayed an Average Relative Luminescence Units of 2170 RLU and a Fold increase in IL2 reporter signal of 0.97 fold.

B9: variant PD-L1 IgV-Fc A33D/S75P (IgV SEQ ID NO 285) (Fc fusion)
chain: FTVTVPKDLYVVEYGSNMTIECKFPVEKQLDLDALIVYWEMEDKNIIQFVHGEEDLKVQHSSYRQRARLLKDQLPLGNAALQITDVKLQDAGVYRCVISYGGADYKRITVKVNAAAAEPKSSDKTHTCPPCPAPELLGGPSVFLFPPKPKDTLMISRTPEVTCVVVDVSHEDPEVKFNWYVDGVEVHNAKTKPCEEQYGSTYRCVSVLTVLHQDWLNGKEYKCKVSNKALPAPIEKTISKAKGQPREPQVYTLPPSREEMTKNQVSLTCLVKGFYPSDIAVEWESNGQPENNYKTTPPVLDSDGSFFLYSKLTVDKSRWQQGNVFSCSVMHEALHNHYTQKSLSLSPGK
B9 gave an MFI at 50 nM in experiment [4] of 306 MFI. The molecule further gave a Fold increase over wildtype PD-L1 IgV-Fc in experiment [5] of 0.1 fold.
